Experimental data reported in IntAct's records for PubMed 18068675.

B1: Neurovirulence factor ICP34.5 (Human herpesvirus 1 (strain 17) (HHV-1)), P36313 (parent)
chain: MARRRRHRGPRRPRPPGPTGAVPTAQSQVTSTPNSEPAVRSAPAAAPPPPPAGGPPPSCSLLLRQWLHVPESASDDDDDDDWPDSPPPEPAPEARPTAAAPRPRPPPPGVGPGGGADPSHPPSRPFRLPPRLALRLRVTAEHLARLRLRRAGGEGAPEPPATPATPATPATPATPARVRFSPHVRVRHLVVWASAARLARRGSWARERADRARFRRRVAEAEAVIGPCLGPEARARALARGAGPANSV

Variants of: B1
Details: with pp1a_human PPP1CA

Row | Variant | effect of a mutation on the interaction
1 | R234E | decreasing interaction

Variants of: B1
Details: with pp1a_human PPP1CA
Remark: another data set of the same source

Row | Variant | effect of a mutation on the interaction
2 | R236D | decreasing interaction

Variants of: B1
Details: with pp1a_human PPP1CA
Remark: another data set of the same source

Row | Variant | effect of a mutation on the interaction
3 | V178E;F180L | decreasing interaction

Variants of: B1
Details: with pp1a_human PPP1CA
Remark: another data set of the same source

Row | Variant | effect of a mutation on the interaction
4 | V178E;F180L | disrupting interaction
